# B1: B-1a + T-1* (trans-3WJ) (mixed)
# RNA 1: GGGCAAACACCAUUGUCAAAAGGCUCUUUUCAGAGCCACACUCCA
# RNA 2: UGGAGUGUGACAAUGGUGUUUG
# modifications: 2'-OMe on trigger (strand 2)
# B2: B-1b (structured_RNA)
# RNA: GGGAAGAGAGCCCAAACACCAUUGUCAAAAGGCUCUUUUCAGAGCUACACUCCAGAGCU
# modifications: none
# B3: B-1b + T-1 (trans-3WJ) (structured_RNA)
# RNA 1: B2 RNA
# RNA 2: UGGAGUGUGACAAUGGUGUUUG
# modifications: none
# Experiments:
# [1] = molecular target: T1, SLBP (histone stem-loop binding protein) (UniProt Q14493 1-270); experiment: RIP pull-down with recombinant SLBP; with T-1* trigger; EMSA: 1x NT2 buffer, 1 mM DTT, RNaseOUT, 50 uL, room temperature 1 h, 1.25 ug SLBP (~37 pmol), native 8% PAGE in 1x TB; RIP: RNAs in 10 mM Tris/100 mM NaCl; pH; conditions: label: none, trans three-way junction, bait:trigger 1:1, not a blunt duplex
# [2] = molecular target: T1, SLBP (histone stem-loop binding protein); experiment: EMSA; without trigger; EMSA: 1x NT2 buffer, 1 mM DTT, RNaseOUT, 50 uL, room temperature 1 h, 1.25 ug SLBP (~37 pmol), native 8% PAGE in 1x TB; RIP: RNAs in 10 mM Tris/100 mM NaCl; pH; conditions: protein: recombinant; label: none; alternative fold without HSL
# [3] = molecular target: T1, SLBP (histone stem-loop binding protein); experiment: EMSA; with T-1 trigger; EMSA: 1x NT2 buffer, 1 mM DTT, RNaseOUT, 50 uL, room temperature 1 h, 1.25 ug SLBP (~37 pmol), native 8% PAGE in 1x TB; RIP: RNAs in 10 mM Tris/100 mM NaCl; pH; conditions: protein: recombinant; label: none; trans three-way junction, bait:trigger 1:1, not a blunt duplex
binder,measurement,setting,value
B1,binding result,[1],binds
B2,binding result,[2],no binding
B3,binding result,[3],binds
